{
  "source": "patent US7514409B2",
  "about": "“VLA-4 antagonists” (Merck & Co., Inc., priority 2004, dated 2009)",
  "origin": "cited, not measured here",
  "molecular_target": "T1, VLA-4 (Homo sapiens, UniProt P13612)",
  "T1 construct": "host or cells: circulating VLA-4-bearing leukocytes of trial subjects (in vivo)",
  "conditions": "early clinical trials",
  "data": [
    {"substance": "natalizumab: humanized monoclonal antibody against α4", "values": [
      {"measurement": "lymphocytosis (a surrogate marker for blockade of VLA-4 function)", "result": "observed"},
      {"measurement": "receptor occupancy", "result": "> 80", "unit": "%"}
    ]}
  ]
}
